Reference: the supplement of paper PMC11502859

Test system: HEK293T
Assay: median enrichment of reporter reads in eGFP-reduced (low/intermediate) vs eGFP-high sorted cells (eGFP-extension fusion abundance) (ratio); higher = stronger loss of eGFP-fusion protein abundance (more destabilising extension)
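Further: lentiviral eGFP-IRES-mCherry reporter pool sorted by FACS 96 h post-transduction, gated on mCherry-high cells, Illumina read counts normalized per million, median across four biological replicates.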

Substance	median enrichment
QKRMMMTFIIHKQWEVQQCLGADLRRRMIFLSLLTT [MROH9]	20.2
PPPPPPP [Pro07]	1.37
LHSL [ZNF443]	0.555
SWTGLFLTSDLSQCLFCPGSDFPVVLPPFRIKGLIVYPEFTSFGVYI [COBL]	13
WEMVGIRLRAASTQSQSKASLLMCEFTNSDGSSHILQMLSLPAG [ITSN2]	19.2
QPSSCKAIAKQGGSLQSMPGDYVSQGGPMGMSMAQPSYTPPQMTPHPTQLRHGPPMHSYLPSHPHHPAMMMHGGPPTHPGMTM [MEIS2]	3.91
SSSSSSSSSS [Ser10]	0.553
QSWWPQPLASDTLYLKNNCAL [CALB1]	5.97
YALGKKDCNQRKSIGVEEIKLTLFWLFF [GLI3]	23.4
SDQGLGLRVGGLVEHCNPLNK [LRG1]	1.34
EILSLAAICKGS [TET2]	18.6
KKTSSR [LGALS2]	0.594
SGLLLY [MRPL20]	1.83
SDSESN [MCM6]	0.12
SGCHGRLSPSIL [KRTAP6-1]	0.506
YGREARAAPAFLLQIWAAVARAVSPVAEPSGRCGNRRSSVAPVS [CPTP]	7
QKQPQGSINNICQLNLLSSNAKKGEWRVQD [PAPOLA]	2.06
YGLAKAPIEALCQ [PITHD1]	1.66
SRPEVQATLASGTPPRL [RTP5]	0.536
SVVPLFH [KIF22]	0.762
QEGQDLYSRLVQQRLMD [TAP2]	0.376
WARRASQRSGQAVRPWPSVC [INMT]	9.99

Substance	median enrichment
FLELKHPRMPLHVFHSPHLQTSLLFLTRPESKLPSLGNSGEGVSCTTYHTPSHPVSDFGMDSGKLGPSLNRVMYLNVCYFQPP [HSPA1L]	6.57
LDRTCLRGRRTLAWAQESEAAFLLRGPSGESGPRYHARTLRGPVSCRRVSTFPPNPGLTALRSARRARAETRVGCGELKEPIK [UQCC3]	3.74
QQQQQQQ [Gln07]	0.347
WLVGLGSSARTSSPALAVVVQALQSAAGLFIKGIYICK [NRN1L]	7.25
RFQIWRRPGKPTEVQHVICLKVVLLHHIDDPTTSNMGHSIHFNISIFLYHFCYLSV [ARPC5]	6.81
KNQGCFEGKGSLSYALLYHQDYILKRKSSM [GPR65]	11.5
WVGGISETGKVAALSHFFWNSWWSPGLGHCLSPACFFVRSGIISKCS [SLC35E2A]	40.8
SGWLSLPFSPSLSALGSVSTAGPKVKVLPLPEASWQGLSWLEVASLVPVLTPRPQRSCLPCCLSPPLCLCLRCVSHSEPPCFC [CCDC97]	5.33
SKTWPENPQVLQRKTELGKGESWKDGAD [ABHD15]	0.348
KKVGRARPCQRG [Degron KLHDC3]	6.66
LNRKKSPK [MDN1]	0.34
RGQWLRGYVVQMLLLP [FILIP1]	8.14
SGAKQRHQLLHQKS [SGMS2]	0.386
LGKLPCRA [ZNF75D]	0.566
SNRIEQNRIE [PCSK5]	0.616
SSSSLFLGNSLLFLPHGRCK [MAX]	4.93
KTKAKYIDFTVILKYNKNC [IL26]	5.5
SAGRGSAPRKCLLCPGAERRCLLGAGLPPCGSCAPWPGPCPAAPVSPSLSPVLVLACSSSQPRESFPTCPRLLSLPRPVVPSW [ARHGAP39]	4.7
YVLILPSH [HSPA4L]	10.7
YEHLVKTRPSGPTMSAPSRGRDMACHSS [ITGB2]	0.9
GGAVAANTPASGLLVAAPGDTPAKPTRWRGPPWSLATLPASAQGPLPSPGHLLCRRHSSQKPLSQKRLVFKKSRFFAPEVSFR [AP1M1]	5.45
YAKSRCTQHVLGMQPQEVPDLKQPDSYLA [GREM1]	22.9

Substance	median enrichment
RGAF [HPX]	0.586
RSC [DCK]	0.415
SGQGPRTQCLARPLPLAFEAKASSR [AGT]	0.949
LSPQMGAEIFQSLEFFQ [ZNF112]	0.686
CLQGSKLQR [OR7A5]	3.17
WMSMSEGKENFGHQNPAPSELKELIYFMKLILLCVCSWC [GALNT15]	26.8
SLEWTTAKLAPSSDRKPPCVGDCRHAK [TM9SF4]	1.73
WKDN [PIK3CA]	0.482
RARCPSPS [PTH2]	2.74
RASPAHCQGRRGPDQGPRGLRAPPLSPPQCLRGPEPPPVPAAPLPQGPAMPHPGLKFCKVLRGPEHVSATRGSGQHCVLRLVS [SLC29A4]	8.55
SMFESHASLWKQYAM [STAT5A]	0.883
SAPPGTPSTPSIFSTKALVVSTLLPNGHTPKWPVGRESWSTCSGMVWWKRG [CLIC1]	11
QCL [ADGRG6]	0.557
SATCPKA [NOL4L]	0.348
LELLCFDS [MAP4K3]	2.88
LFILEINLTNVMNVEKLLRGSWPLVNTREFILERNPTFVKNVAKPLSAPQPLQATREFIWKRDLTNVKNAAKPVFLRPD [ZNF727]	15.7
EPVKNHAKAKTRSAERAHGSSRLVGDQAHLICTNCSTC [OCSTAMP]	3.35
QIL [TMEM244]	0.849
WTHPLVVDRLPGTTIIPGPPRASEFETLAEIK [TBC1D7]	4.38
QCGSCDRGSSSAEPQTVLPCSMCLKAQGDIPLGWPLPPP [DIAPH1]	1.17
RGLGWAGARRAAGWPLGGQDGTVGTEVGGRGPSGLN [TNFRSF8]	6.62
ENSSSTMDFRLLVAVLT [ELF2]	7.29

Substance	median enrichment
IIIIII [Ile06]	8.61
YKRSLADPSL [KCNQ3]	0.769
RTFATVYFKNKFKLFYHFI [ABCB4]	7.31
RPSGPPLPLGQGNQLLRDFSCLEGAVIAPPHCPTVLLGL [FBXW4]	4.69
CSDGGWSLSESSALPSPGDEGNSLCFAEKILWINTEAPATPEGWRLLSLPILQSGSKPSKTAPEHCFSWVQS [C3orf52]	13.3
YTHMYDPYKCFKILKM [TRDN]	11.1
MMMM [Met04]	1.4
WSQFPVTRTILATLFESIQVVWPMILLLTYLSTSSGPCPFGKLSFFLLHWGTGC [CLEC5A]	9.24
WTAERTMHPSAWWSLRDRSDDPRRLWRTI [LILRA2]	6.78
CDPPRPPEWPPPHHSTMGLDARVIVVQNRRENRPATHKGQG [TMEM151A]	4.51
WSPTRPERPEMVLTMLPANRSRKPACE [ANXA2]	1.38
YHRPVPGATWGPCGGKPFPPPRGDAQPPSGPPFGHHQVPKVPQEASTLHARPASISLSFPVWPSFEGHVRWRSQARQTLTRGL [PLPP7]	8.18
RELHYPFPSQTTN [MDC1]	0.473
TIRLWDTYQSEPDGFSHFHLYVCAAFLVRWRKEILEEKDFQELLLFLQNLPTAHWDDEDISLLLAEAYRLKFAFADAPNHYKK [TBC1D22A]	4.42
EILGSKYTSLFKNSNLI [OR10G4]	11.8
ETGPTHHSPSPSISTWCLVPVHSVNKKP [KLK11]	2.42
SHVRNLSIK [AGTR1]	0.587
GMSVVSCLQTPSPAQFI [SAMHD1]	1.45
PCRHHPPPSPCPQPVCPVPCPPQAWWWQWRRLRRLKRLTGRGAFCLAHCPDDPPAPSRLQQQSPRRTGWTEEKEVDCCTHTER [SOX10]	3.84
WHHLIDYGTRKSEGFHIR [PLPP6]	7.61
